± gives the uncertainty stated by the source.
B1: Membrane-associated guanylate kinase, WW and PDZ domain-containing protein 3, residues 287 to 329; numbered along this chain, Q5TCQ9 (parent)
chain: MRDETLEPLPKNWEMAYTDTGMIYFIDHNTKTTTWLDPRLCKK
B2: Heterogeneous nuclear ribonucleoprotein U-like protein 2, residues 1 to 40; numbered along this chain, Q1KMD3 (parent)
chain: MEVKRLKVTELRSELQRRGLDSRGLKVDLAQRLQEALDAE

Variants of: B1
Assay: abundance fitness (aPCA) (normalised: wild type 0, dead -1); higher = more abundant; growth selection in yeast, the domain comes from the species named
Details: Homo sapiens

Variant | abundance fitness
L6P | -0.068 ± 0.039
L6F | -0.13 ± 0.19
L6Y | -0.156 ± 0.052
L6W | -0.108 ± 0.039
L6H | -0.249 ± 0.07
L6Q | 0.103 ± 0.071
L6T | -0.018 ± 0.044
L6G | 0.001 ± 0.032
L6A | 0.016 ± 0.036
L6K | -0.128 ± 0.13
L6D | -0.086 ± 0.061
L6M | -0.067 ± 0.069
L6I | 0.141 ± 0.22
L6V | -0.024 ± 0.031
L6S | 0.034 ± 0.034
L6R | -0.026 ± 0.032
L6E | -0.029 ± 0.053
D3S | -0.067 ± 0.036
D3R | -0.127 ± 0.032
D3C | -0.164 ± 0.093
D3A | -0.089 ± 0.034
D3Y | -0.367 ± 0.12
D3N | -0.148 ± 0.067
D3W | -0.336 ± 0.039
D3P | -0.072 ± 0.053

Variant | abundance fitness
D3M | -0.188 ± 0.035
D3K | -0.046 ± 0.051
D3G | -0.065 ± 0.036
D3Q | -0.074 ± 0.044
D3T | -0.12 ± 0.042
D3E | -0.039 ± 0.036
D3F | -0.161 ± 0.065
D3L | -0.175 ± 0.043
D3I | -0.213 ± 0.1
E4Y | -0.319 ± 0.11
E4H | -0.174 ± 0.063
E4C | -0.062 ± 0.038
E4R | -0.091 ± 0.03
E4F | -0.097 ± 0.068
E4A | -0.09 ± 0.038
E4Q | -0.04 ± 0.035
E4L | -0.09 ± 0.04
E4W | -0.515 ± 0.057
E4M | -0.11 ± 0.043
E4P | -0.095 ± 0.045
E4K | -0.107 ± 0.065
E4G | -0.113 ± 0.03
E4D | -0.115 ± 0.055
E4S | -0.043 ± 0.045
E7I | -0.218 ± 0.054

Variant | abundance fitness
E7D | -0.113 ± 0.078
E7K | -0.101 ± 0.045
E7A | -0.076 ± 0.038
E7C | -0.324 ± 0.067
E7F | -0.327 ± 0.045
E7G | 0.013 ± 0.032
E7L | -0.115 ± 0.035
T5N | 0.125 ± 0.2
T5P | -0.023 ± 0.036
T5R | -0.064 ± 0.036
T5G | -0.05 ± 0.028
T5V | -0.064 ± 0.033
T5M | 0.251 ± 0.14
T5H | -0.059 ± 0.054
T5F | -0.384 ± 0.16
T5W | -0.303 ± 0.062
T5A | -0.04 ± 0.042
T5E | -0.046 ± 0.037
T5D | -0.02 ± 0.054
T5Y | -0.19 ± 0.056
T5C | -0.123 ± 0.09
T5Q | 0.012 ± 0.058
T5K | 0.072 ± 0.057
R2W | -0.226 ± 0.038
R2L | -0.072 ± 0.054

Variant | abundance fitness
R2E | -0.05 ± 0.038
R2G | -0.054 ± 0.043
R2F | -0.171 ± 0.049
R2V | -0.091 ± 0.033
R2S | -0.164 ± 0.044
R2T | -0.002 ± 0.033
R2M | -0.015 ± 0.077
R2N | -0.021 ± 0.046
R2C | -0.046 ± 0.048
R2I | -0.122 ± 0.055
R2K | -0.045 ± 0.073
R2A | -0.088 ± 0.039
M1S | -0.064 ± 0.096
M1N | -0.213 ± 0.13
M1T | -0.06 ± 0.039
M1D | -0.026 ± 0.061
M1L | -0.074 ± 0.042
M1I | -0.152 ± 0.27
M1R | -0.056 ± 0.035
M1Y | -0.1 ± 0.11
M1Q | -0.253 ± 0.12
M1V | -0.089 ± 0.038
M1K | 0.025 ± 0.047
M1G | -0.057 ± 0.032
M1E | 0.001 ± 0.038

Variants of: B2
Assay: as above
Details: Homo sapiens

Variant | abundance fitness
A30V | 0.011 ± 0.059
A30P | -0.718 ± 0.15
A30G | -0.361 ± 0.063
A30C | -0.006 ± 0.071
A30F | -0.217 ± 0.13
A30Q | 0.106 ± 0.09
A30S | -0.165 ± 0.069
A30L | -0.21 ± 0.074
A30R | 0.046 ± 0.051
A30W | -0.236 ± 0.056
A30N | -0.422 ± 0.4
A30T | -0.058 ± 0.077
A30D | -0.217 ± 0.083
D38C | -0.157 ± 0.076
D38L | -0.284 ± 0.061
D38N | 0.113 ± 0.17
D38V | -0.231 ± 0.055
D38G | -0.281 ± 0.054
D38M | -0.169 ± 0.11
D38F | -0.33 ± 0.079
D38R | -0.217 ± 0.05
D38K | -0.185 ± 0.072
D38S | -0.19 ± 0.054

Variant | abundance fitness
D38P | -0.402 ± 0.12
D38E | -0.013 ± 0.059
D38A | -0.198 ± 0.057
D38T | -0.027 ± 0.063
D38I | -0.629 ± 0.43
D38H | -0.531 ± 0.16
D38Q | -0.244 ± 0.089
D38Y | -0.243 ± 0.083
D38W | -0.36 ± 0.059
A39R | 0.017 ± 0.049
A39T | -0.088 ± 0.061
A39V | -0.132 ± 0.059
A39N | 0.153 ± 0.2
A39L | -0.118 ± 0.059
A39H | -0.026 ± 0.12
A39Q | 0.005 ± 0.11
A39S | -0.06 ± 0.052
A39W | -0.263 ± 0.061
A39Y | -0.367 ± 0.098
A39K | -0.046 ± 0.079
A39G | -0.036 ± 0.049
A39D | -0.185 ± 0.14
A39I | -0.497 ± 0.18

Variant | abundance fitness
A39F | -0.159 ± 0.09
A39P | -0.272 ± 0.12
K26Y | -0.103 ± 0.15
L37S | -0.346 ± 0.054
L37P | -0.282 ± 0.074
L37C | -0.276 ± 0.097
L37D | -0.24 ± 0.064
L37N | -0.381 ± 0.083
L37Q | -0.113 ± 0.061
L37R | -0.223 ± 0.048
L37V | -0.078 ± 0.057
L37M | 0.001 ± 0.059
L37H | -0.032 ± 0.11
L37K | -0.199 ± 0.089
L37A | -0.337 ± 0.056
L37E | -0.157 ± 0.066
L37W | -0.266 ± 0.059
L37G | -0.319 ± 0.049
L37I | 0.223 ± 0.14
L37F | -0.112 ± 0.14
L37T | -0.179 ± 0.054

Reference: the Human Domainome abundance scans (Beltran et al. 2025)
